{
  "source": "patent US20100136573",
  "system": "Recombinant human GST-TDP-43 (N-terminal GST tag, full length), non-phosphorylated",
  "sequence (chain, as listed by the source)": "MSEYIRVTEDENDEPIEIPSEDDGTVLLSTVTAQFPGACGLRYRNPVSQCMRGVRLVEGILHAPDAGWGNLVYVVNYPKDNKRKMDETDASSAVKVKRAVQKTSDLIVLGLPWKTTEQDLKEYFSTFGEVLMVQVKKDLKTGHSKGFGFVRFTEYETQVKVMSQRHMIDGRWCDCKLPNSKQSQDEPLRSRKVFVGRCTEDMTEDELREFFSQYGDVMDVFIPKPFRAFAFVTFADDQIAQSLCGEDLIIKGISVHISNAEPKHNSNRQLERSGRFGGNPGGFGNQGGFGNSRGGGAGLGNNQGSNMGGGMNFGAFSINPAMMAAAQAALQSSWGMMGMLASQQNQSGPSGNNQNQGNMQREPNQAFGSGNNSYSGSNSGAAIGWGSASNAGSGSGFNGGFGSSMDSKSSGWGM",
  "data": [
    {"substance": "recombinant casein kinase 1 (CK1; New England BioLabs, Inc)", "values": [
      {"measurement": "in vitro phosphorylation, read by anti-pTDP-43 Western blot", "value": "CK1 effectively phosphorylated GST-TDP-43 at S409/S410 in vitro"}
    ]}
  ]
}
